Experimental data published in US20100260765A1 (AstraZeneca / MedImmune, published 2010).
Substitutions are numbered along the chain they refer to.

B1: 1G6 (antibody, V domains shown)
VH: EVQLLESGGGLVQPGGSLRLSCAASGFTFSSYAMSWVRQAPGKGLEWVSAISGGGGNTYYADSVKGRFTISRDNSKNTLYLQMNSLRAEDTAVYYCSKVATDYWGQGTLVTVSS
VL: QPVLTQSSSASASLGSSVKLTCTLSSGHSSYIIAWHQQQPGKAPRYLMKLEGSGSYNKGSGVPDRFSGSSSGADRYLTISNLQFEDEADYYCETWDSYTVVFGGGTKLTVL
B2: 29A11 (antibody, V domains shown)
VH: B1 VH with S31N, S35N, S85R, S97A, V99A, A100S, T101G, Y103D
VL: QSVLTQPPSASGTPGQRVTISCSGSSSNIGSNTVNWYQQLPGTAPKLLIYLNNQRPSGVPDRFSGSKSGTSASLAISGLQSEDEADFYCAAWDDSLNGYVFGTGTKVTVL
B3: 32G7 (antibody, V domains shown)
VH: EVQLVESGGGLVKPGGSLRLSCAASGFTISSYSMNWVRQAPGKGLEWVSFISSRSNYIYYADSVKGRFTISRDNAKNSLYLQMNSLRAEDTAVYYCSKDDWFEELWGQGTLVTVSS
VL: DIQMTQSPSSLSASVGDRVTITCRASQDIRNDLGWYQQKPGKAPKRLIYAASSLQSGVPSRFSGSGSGTEFTLTISSLQPEDFATYYCLQHNSFPWTFGQGTKVEIK
B4: 29D4 (antibody, V domains shown)
VH: QLQLQESGPGLVKPSETLSLTCTVSGGSISSRSNYWGWIRQPPGKGLEWIGTIYYSGHTYYNPSLKSRVSISVDTSKNQFSLKLSSVTATDTALYYCARQQLVLYYFEYWGQGTLVTVSS
VL: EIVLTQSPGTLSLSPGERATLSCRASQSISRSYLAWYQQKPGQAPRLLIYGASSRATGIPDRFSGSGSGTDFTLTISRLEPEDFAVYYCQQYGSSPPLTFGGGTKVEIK

Assays:
Assay in all cases: cell-based or functional assay
[1] = biological target: T1, KDR (human, UniProt P35968 20-1356)
[2] = biological target: T1, KDR; remark: listed apart in the source
[3] = biological target: T1, KDR; remark: listed apart in the source
[4] = biological target: T1, KDR; remark: listed apart in the source
[5] = biological target: T1, KDR; remark: listed apart in the source

T1 sequence (P35968 20-1356): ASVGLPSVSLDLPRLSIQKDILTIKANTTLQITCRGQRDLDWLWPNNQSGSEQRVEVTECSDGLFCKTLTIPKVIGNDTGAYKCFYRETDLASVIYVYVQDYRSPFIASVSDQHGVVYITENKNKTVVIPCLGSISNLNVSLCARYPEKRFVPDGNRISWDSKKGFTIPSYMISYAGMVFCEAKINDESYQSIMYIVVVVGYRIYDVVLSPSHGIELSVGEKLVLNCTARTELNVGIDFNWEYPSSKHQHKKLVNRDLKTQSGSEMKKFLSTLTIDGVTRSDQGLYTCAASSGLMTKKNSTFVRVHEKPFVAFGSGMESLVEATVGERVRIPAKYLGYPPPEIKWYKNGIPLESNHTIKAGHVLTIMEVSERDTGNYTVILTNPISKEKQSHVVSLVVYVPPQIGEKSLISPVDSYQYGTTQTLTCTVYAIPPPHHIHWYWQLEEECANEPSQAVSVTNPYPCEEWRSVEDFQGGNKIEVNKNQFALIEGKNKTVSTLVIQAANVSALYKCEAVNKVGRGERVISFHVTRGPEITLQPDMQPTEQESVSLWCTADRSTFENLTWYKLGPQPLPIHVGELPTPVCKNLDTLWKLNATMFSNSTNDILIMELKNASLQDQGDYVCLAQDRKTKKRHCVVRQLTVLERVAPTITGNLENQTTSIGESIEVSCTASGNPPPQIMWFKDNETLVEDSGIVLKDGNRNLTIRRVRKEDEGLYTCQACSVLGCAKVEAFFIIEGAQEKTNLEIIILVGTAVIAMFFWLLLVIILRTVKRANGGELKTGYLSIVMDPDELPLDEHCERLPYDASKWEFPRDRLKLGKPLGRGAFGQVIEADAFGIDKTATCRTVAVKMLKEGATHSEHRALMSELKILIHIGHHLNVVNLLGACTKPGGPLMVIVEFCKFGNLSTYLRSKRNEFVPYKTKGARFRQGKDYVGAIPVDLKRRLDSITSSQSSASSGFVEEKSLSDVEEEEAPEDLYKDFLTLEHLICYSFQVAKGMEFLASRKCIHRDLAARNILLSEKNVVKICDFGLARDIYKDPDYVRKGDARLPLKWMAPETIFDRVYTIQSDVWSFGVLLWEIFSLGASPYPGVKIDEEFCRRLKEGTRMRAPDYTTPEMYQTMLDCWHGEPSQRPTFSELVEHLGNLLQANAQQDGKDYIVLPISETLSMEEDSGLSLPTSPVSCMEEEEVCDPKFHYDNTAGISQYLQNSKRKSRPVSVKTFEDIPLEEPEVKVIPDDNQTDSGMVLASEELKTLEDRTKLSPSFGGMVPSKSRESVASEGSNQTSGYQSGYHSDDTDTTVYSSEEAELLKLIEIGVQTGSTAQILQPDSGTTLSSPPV

| Binder | Activity at 133 nM (% Inhibition), 1-hour Pre-incubation at 4° C., Average [1] | Activity at 133 nM (% Inhibition), 1-hour Pre-incubation at 4° C., N = 1 [1] | Activity at 133 nM (% Inhibition), 1-hour Pre-incubation at 4° C., N = 2 [1] | Activity at 133 nM Antibody Concentration (% Survival Inhibition), Average [2] | Activity at 133 nM Antibody Concentration (% Survival Inhibition), N = 1 [2] | Activity at 133 nM Antibody Concentration (% Survival Inhibition), N = 2 [2] | % of Max VEGF KDR pTyr Activity (at 133 nM antibody concentration), Average [3] | % of Max VEGF KDR pTyr Activity (at 133 nM antibody concentration), N = 1 [3] | % of Max VEGF KDR pTyr Activity (at 133 nM antibody concentration), N = 2 [3] | % Inhibition of VEGF165-mediated 6-keto Prostaglandin F1α release at 133 nM Antibody Concentration, Average [4] | % Inhibition of VEGF165-mediated 6-keto Prostaglandin F1α release at 133 nM Antibody Concentration, N = 1 [4] | % Inhibition of VEGF165-mediated 6-keto Prostaglandin F1α release at 133 nM Antibody Concentration, N = 2 [4] | Activity at 133 nM (% Inhibition), 24-hour Pre-incubation at 37° C., Average [5] | Activity at 133 nM (% Inhibition), 24-hour Pre-incubation at 37° C., N = 1 [5] | Activity at 133 nM (% Inhibition), 24-hour Pre-incubation at 37° C., N = 2 [5] |
| --- | --- | --- | --- | --- | --- | --- | --- | --- | --- | --- | --- | --- | --- | --- | --- |
| B1 | 43% | 35% | 50% | 0% | 9% | -10% | 13% | 17% | 10% | 49% | 12% | 86% | 36% | 25% | 47% |
| B2 | 32% | 30% | 33% | -2% | 6% | -10% | 12% | 15% | 10% | 25% | 8% | 41% | 23% | 19% | 27% |
| B3 | 79% | 79% | 79% | 69% | 70% | 67% | 9% | 11% | 6% | 76% | 37% | 115% | 57% | 36% | 77% |
| B4 | 68% | 64% | 73% | 85% | 85% | 85% | 13% | 15% | 12% | 95% | 72% | 119% | 80% | 75% | 85% |
